Experimental data: patent publication US20140090111A1, “Plant Hormone Biosensors” (Carnegie Institution of Washington, priority 2012, published 2014)
Positions count from the first letter of the chain named. In names and notes the source's numbering stands.

B1: GID1C(S114A): GA biosensor mutant variant, mutation of a GA binding residue of GID1C (protein, UniProt Q940G6 2-344, looked up, variant S114A)
Gibberellin receptor GID1C: AGSEEVNLIESKTVVPLNTWVLISNFKLAYNLLRRPDGTFNRHLAEFLDRKVPANANPVNGVFSFDVIIDRQTNLLSRVYRPADAGTSPSITDLQNPVDGEIVPVIVFFHGGAFAHSSANSAIYDTLCRRLVGLCGAVVVSVNYRRAPENRYPCAYDDGWAVLKWVNSSSWLRSKKDSKVRIFLAGDSSGGNIVHNVAVRAVESRIDVLGNILLNPMFGGTERTESEKRLDGKYFVTVRDRDWYWRAFLPEGEDREHPACSPFGPRSKSLEGLSFPKSLVVVAGLDLIQDWQLKYAEGLKKAGQEVKLLYLEQATIGFYLLPNNNHFHTVMDEIAAFVNAECQ
modifications: within FRET biosensor
B2: GID1C P98A: GA biosensor mutant variant rendering GID interaction with DELLA constitutive; control (protein, UniProt Q940G6 2-344, looked up, variant P98A)
Gibberellin receptor GID1C: B1 Gibberellin receptor GID1C with P97A, A113S
modifications: within FRET biosensor
notes: control

Experiment: FRET fluorescence emission response of GA biosensors to GA
Type: binding
Conditions: FIG. 9
Text: FIG. 9 depicts the fluorescence emission curves of a GA biosensor in response to GA. Also depicted are the GA responses of biosensor mutant variants. A: GA response of SMSX39L10.DR43 (RGA2 and GID1C sub-domains, L10 linker, Venus and Cerulean fluorescent proteins).
Expression and screening hormone biosensors using Saccharomyces cerevisiae as a eukaryotic host cell to better express the eukaryotic hormone binding domains. S. cerevisiae can be adapted to a high-throughput expression system. A new library of GATEWAY™ destination vectors was created for expression in yeast (Table IV, FIG. 2). Although expression of SMS in S. cerevisiae was successful as determined by fluorescence emissions, purification of sensors from the host cells was not possible because of cleavage of the hormone binding domains of the SMS proteins upon cell lysis, which can be important because the rate of transport of many plant hormones into yeast cells is low. […] SMS proteins were subsequently screened from cell lysates and after purification using metal-affinity chromatography, if the clones included an N-terminal 6HIS tag.
Subsequent experiments identified protocols for yeast cell transformation, culture and lysis, metal-affinity chromatography, and fluorescence analysis after hormone treatment in a 96-well format. Thus, a novel high-throughput platform for creation and screening of SMS had been developed. […]

Molecule	GA affinity / GA response of biosensor
B1	reduced GA affinity
B2	GA non-responsive
